From publication PMC9486893, “Protein Conformational Space at the Edge of Allostery: Turning a Nonallosteric Malate Dehydrogenase into an “Allosterized” Enzyme Using Evolution-Guided Punctual Mutations” (Molecular Biology and Evolution, 2022)
Where a chain is given by its changes, count along the chain named. Names may count otherwise.

Legend:
[1] = target: Archaeoglobus fulgidus malate dehydrogenase mutant 3 (R102Q and P250I) (Archaeoglobus fulgidus); experiment: SEC-MALS; SEC-MALLS with refractometry; Enrich 650 column, 50 mM Tris-HCl pH 7.2, 50 mM NaCl, room temperature, 50 ul at ~1 mg/ml, 0.5 ml/min; self-association (dimer)
[2] = target: Archaeoglobus fulgidus malate dehydrogenase mutant 2 (P250I) (Archaeoglobus fulgidus); experiment: as above
[3] = target: Archaeoglobus fulgidus malate dehydrogenase mutant 1 (R102Q) (Archaeoglobus fulgidus); experiment: as above
[4] = substrate: CC(=O)C(=O)O; experiment: purified protein; type: biochemical, Archaeoglobus fulgidus; conditions: 0.5 mM NADH, MES pH 6.0, 50 mM NaCl, 70 °C (340 K in Figure 3)
[5] = target: the molecule itself; experiment: SEC-MALS; SEC-MALLS with refractometry; Enrich 650 column, 50 mM Tris-HCl pH 7.2, 50 mM NaCl, room temperature, 50 ul at ~1 mg/ml, 0.5 ml/min; self-association (dimer)
[6] = substrate: O=C(O)CC(=O)C(=O)O; experiment: purified protein; type: biochemical, Archaeoglobus fulgidus; conditions: 0.5 mM NADH, 50 mM potassium phosphate pH 7.0, 50 mM NaCl
[7] = mutant 3, sigmoid (homotropic activation)
[8] = 70 °C (340 K in Figure 3), substrate inhibition at excess OAA
[9] = 70 °C (340 K in Figure 3), mutant 2, hyperbolic, text b25 gives 1.31 mM

Archaeoglobus fulgidus malate dehydrogenase mutant 3 (R102Q and P250I) (enzyme)
stoichiometry N [1]: 2

Archaeoglobus fulgidus malate dehydrogenase mutant 2 (P250I) (enzyme)
stoichiometry N [2]: 2

Archaeoglobus fulgidus malate dehydrogenase mutant 1 (R102Q) (enzyme)
stoichiometry N [3]: 2

B1: Wt A. fulgidus MalDH (Archaeoglobus fulgidus DSM 4304; P216I/R81Q) (protein)
chain: MKLGFVGAGRVGSTSAFTCLLNLDVDEIALVDIAEDLAVGEAMDLAHAAAGIDKYPKIVGGADYSLLKGSEIIVVTAGLAQKPGMTRLDLAHKNAGIIKDIAKKIVENAPESKILVVTNPMDVMTYIMWKESGKPRNEVFGMGNQLDSQRLKERLYNAGARNIRRAWIIGEHGDSMFVAKSLADFDGEVDWEAVENDVRFVAAEVIKRKGATIFGIAVAIYRMVKAVVEDTGEIIPTSMILQGEYGIENVAVGVPAKLGKNGAEVADIKLSDEEIEKLRNSAKILRERLEELGY
notes: full-length, codon-optimized synthetic gene in pET-20a (NdeI/BamHI), E. coli BL21 DE3 pLysS; no tag mentioned; homodimer, theoretical 72 kDa (SEC-MALLS 62-65 kDa)
K0.5 [4, 7]: 100 mM
kcat [4, 7]: 21 s⁻¹
kcat/Km [4, 7]: 210 M⁻¹ s⁻¹

B2: Wild-type Archaeoglobus fulgidus malate dehydrogenase (enzyme)
chain: B1 chain with Q81R, I216P
notes: synthetic gene codon-optimised for E. coli, in pET-20a (NdeI/BamHI); No tag is mentioned; purification was by heat treatment, ion exchange and gel filtration; Homodimer; also called Wt A. fulgidus MalDH; Wt enzyme; source: E. coli BL21 DE3 pLysS, purified (70 °C heat step, Q sepharose, gel filtration)
stoichiometry N [5]: 2
K0.5 [6, 8]: 0.1 mM
kcat [6, 8]: 417 s⁻¹
kcat/Km [6, 8]: 4.3e+06 M⁻¹ s⁻¹

B3: Wt A. fulgidus MalDH (Archaeoglobus fulgidus DSM 4304; R81Q) (protein)
chain: B1 chain with I216P
notes: as for B1
K0.5 ([4]; mutant 1, pH 6.0): 5.6 mM
kcat ([4]; mutant 1, pH 6.0): 40 s⁻¹
kcat/Km ([4]; mutant 1, pH 6.0): 7100 M⁻¹ s⁻¹
K0.5 ([6]; 70 °C, mutant 1, pH 7.0): 14 mM
kcat ([6]; 70 °C, mutant 1, pH 7.0): 12 s⁻¹
kcat/Km ([6]; 70 °C, mutant 1, pH 7.0): 900 M⁻¹ s⁻¹

B4: Wt A. fulgidus MalDH (Archaeoglobus fulgidus DSM 4304; P216I) (protein)
chain: B1 chain with Q81R
notes: as for B1
K0.5 [6, 9]: 1.3 mM
kcat [6, 9]: 175 s⁻¹
kcat/Km [6, 9]: 130000 M⁻¹ s⁻¹
